Positions count from the first letter of the chain named. In names and notes the source's numbering stands. Entries after “also recorded” stand apart in the source; their conditions may differ.
Assays:
Gal2 = Gal2 (Saccharomyces cerevisiae, UniProt P13181); details: galactose transport by Gal2; cited from earlier work
EBY.VW4000 = assay: Serial dilution growth drop test of Gal2 variants in EBY.VW4000 on hexoses; type: cell-based, Saccharomyces cerevisiae; details: FIG. 3, four days at 30°; for growth on glucose: Gal2 of CEN.PK constructs
Experimental: The transformants were cultivated in 5 ml SCM-ura with 20 g/l maltose at 300, washed with water and adjusted to an OD600 of 1. Thereof it followed a serial dilution. 5 μl were dropped onto the respective media and it was incubated for […] at 30°. As a control for the dilution SCM-ura with 20 g/l maltose was taken. The cells of the mutated transporters were dropped onto SCD-ura with 0.2% and 2% glucose, as well as SCG-ura with 0.2% and 2% D-galactose to test their functionality. Furthermore the wild type of CEN.PK2 and Ethanol Red, as well as Gal2_ep3.1 were used for comparison. The galactose transporter with the mutation T354A is from HDY.GUF10.
FIG. 3: Drop test of Gal2_T354A in combination with V71I and L280R in EBY.VW4000 after four days at 30°. Several dilutions were dropped from left to right (undiluted, 1:10, 1:100, 1:1000).
(§1) For easy comparison of growth of different S. cerevisiae strains under various growth conditions a serial dilution spot assay was performed. Cells were grown in liquid culture to exponential phase in appropriate medium, collected by centrifugation (2000×g, 2 min), washed twice with sterile water and then resuspended to an OD600 of 1.0 in selective medium without carbon source. From this cell suspension a ten-fold serial dilution was prepared in selective medium (four dilution steps). 6 μl of each cell suspension were spotted on plates of the media to be examined and allowed to dry. Plates were incubated at 30° C.
First a growth test was performed with the vectors in VW4000 on glucose and maltose media. The galactose transporter of the wild type CEN.PK2, as well as Gal2_ep3.1 were used as controls and as a comparison.
The following variants of Gal2 were constructed in expression vectors: T354A, T354A+V71I, T354A+L280R, L280R and […]. They were transformed into competent EBY.VW4000 cells. Then drop tests were performed on different carbon sources.

AFY10 = assay: Serial dilution growth drop test of Gal2 variants in AFY10 on xylose and xylose-glucose mixtures; type: cell-based, Saccharomyces cerevisiae; details: FIG. 4; 2 g/l xylose, six days at 30°
Experimental: The transformants were cultivated in 5 ml SCE-ura-leu with 2% ethanol at 300, washed with water and adjusted to an OD600 of 1. Thereof it followed a serial dilution. 5 μl were dropped onto the respective media and it was incubated for […] at 30°. As a control for the dilution SCE-ura-leu with 2% ethanol was taken. The cells of the mutated transporters were dropped onto SCX-ura-leu with 0.2% and 2% D-xylose, as well as SC-ura-leu with 1% D-xylose with 4% D-glucose and SC-ura-leu with 0.2% D-xylose and 2% D-glucose to test their functionality. Furthermore the wild type of CEN.PK2 and Ethanol Red, as well as Gal2_ep3.1 were used for comparison. The galactose transporter with the mutation T354A is from HDY.GUF10.
FIG. 4: Drop test of Gal2_T354A in combination with V71I and L280R in AFY10 after six days at 30°. Several dilutions were dropped from left to right (undiluted, 1:10, 1:100, 1:1000).
as §1
Furthermore this was also done with AFY10 in order to investigate the xylose specificity and the glucose affinity of the transformants.
The various constructs were transformed into AFY10 cells together with vector YEp181_pHXT7-optXI_Clos, and serial dilution growth drop tests were performed.

Chain of Gal2 (P13181 whole entry): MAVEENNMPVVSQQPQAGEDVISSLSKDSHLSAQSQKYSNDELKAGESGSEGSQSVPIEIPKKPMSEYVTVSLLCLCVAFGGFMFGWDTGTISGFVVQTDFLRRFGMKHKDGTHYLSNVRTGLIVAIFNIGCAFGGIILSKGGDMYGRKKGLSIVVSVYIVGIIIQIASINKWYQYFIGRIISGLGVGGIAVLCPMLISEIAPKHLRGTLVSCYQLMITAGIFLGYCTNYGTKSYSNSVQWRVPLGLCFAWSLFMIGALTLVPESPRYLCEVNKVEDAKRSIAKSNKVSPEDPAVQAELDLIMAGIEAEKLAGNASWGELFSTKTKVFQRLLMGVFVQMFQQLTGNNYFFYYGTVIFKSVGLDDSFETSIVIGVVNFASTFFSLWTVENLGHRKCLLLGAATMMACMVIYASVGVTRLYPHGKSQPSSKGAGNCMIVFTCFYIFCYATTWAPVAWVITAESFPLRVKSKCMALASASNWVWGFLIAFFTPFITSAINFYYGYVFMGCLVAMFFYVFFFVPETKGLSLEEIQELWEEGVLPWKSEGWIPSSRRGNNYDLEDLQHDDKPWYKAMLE

Molecule: O=C[C@H](O)[C@@H](O)[C@@H](O)[C@H](O)CO [galactose]
- Km (Gal2): 1000 to 5000 µM

B1: V71I: Gal2 of CEN.PK with amino acid exchange V71I alone (protein, UniProt P13181 1-574, looked up, variant V71I)
Galactose transporter: MAVEENNMPVVSQQPQAGEDVISSLSKDSHLSAQSQKYSNDELKAGESGSEGSQSVPIEIPKKPMSEYVTISLLCLCVAFGGFMFGWDTGTISGFVVQTDFLRRFGMKHKDGTHYLSNVRTGLIVAIFNIGCAFGGIILSKGGDMYGRKKGLSIVVSVYIVGIIIQIASINKWYQYFIGRIISGLGVGGIAVLCPMLISEIAPKHLRGTLVSCYQLMITAGIFLGYCTNYGTKSYSNSVQWRVPLGLCFAWSLFMIGALTLVPESPRYLCEVNKVEDAKRSIAKSNKVSPEDPAVQAELDLIMAGIEAEKLAGNASWGELFSTKTKVFQRLLMGVFVQMFQQLTGNNYFFYYGTVIFKSVGLDDSFETSIVIGVVNFASTFFSLWTVENLGHRKCLLLGAATMMACMVIYASVGVTRLYPHGKSQPSSKGAGNCMIVFTCFYIFCYATTWAPVAWVITAESFPLRVKSKCMALASASNWVWGFLIAFFTPFITSAINFYYGYVFMGCLVAMFFYVFFFVPETKGLSLEEIQELWEEGVLPWKSEGWIPSSRRGNNYDLEDLQHDDKPWYKAMLE
- effect on uptake of glucose or galactose (EBY.VW4000): no effect
- growth on low xylose concentrations (AFY10): very slow growth; also recorded: poor growth

B2: T354A: Gal2 of CEN.PK with amino acid exchange T354A alone (protein, listed as Saccharomyces cerevisiae)
chain: B1 Galactose transporter with S50P, I71V, R280L, T354A, H392R
- growth on glucose (EBY.VW4000): strongly impairs growth
- growth on low xylose concentrations (AFY10): poor growth

B3: V71I and T354A: Gal2 of CEN.PK with amino acid exchanges T354A and V71I (protein, UniProt P13181 1-574, looked up, variant V71I T354A)
Galactose transporter: B1 Galactose transporter with T354A
- growth on glucose (EBY.VW4000): does not mediate growth
- growth on low xylose concentrations (AFY10): growth like the Gal2 wild type

Reference: US10246495B2, “Variants of Gal2 transporter and their uses” (BUTALCO GMBH, priority 2014, dated 2019)
